From publication PMC9482650, “Quantitative fragmentomics allow affinity mapping of interactomes” (Nature Communications, 2022)
Each block holds one binder with its values, some of them ahead of it.

Key:
Assay in all cases: holdup assay
Set-up in all cases: key: below the threshold = too weak to quantify, mostly under pKd 3.1 to 4
Conditions in all cases: plain residues with an end cap or a label only (N-terminal biotin on a linker: ado-ado)
APBA1_2, Q02410 = target: T1, APBA1_2, Q02410
T1 sequence (Q02410 742-832, limits assumed, looked up): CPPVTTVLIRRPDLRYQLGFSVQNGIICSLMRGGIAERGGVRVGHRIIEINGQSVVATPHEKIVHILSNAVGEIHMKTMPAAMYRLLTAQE

APBA2_2, Q99767 = target: T2, APBA2_2, Q99767
T2 sequence (Q99767 654-744, limits assumed, looked up): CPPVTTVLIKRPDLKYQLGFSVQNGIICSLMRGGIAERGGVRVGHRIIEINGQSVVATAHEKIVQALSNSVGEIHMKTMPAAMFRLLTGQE

ARHGAP21, Q5T5U3 = target: T3, ARHGAP21, Q5T5U3
T3 sequence (Q5T5U3 45-169, limits assumed, looked up): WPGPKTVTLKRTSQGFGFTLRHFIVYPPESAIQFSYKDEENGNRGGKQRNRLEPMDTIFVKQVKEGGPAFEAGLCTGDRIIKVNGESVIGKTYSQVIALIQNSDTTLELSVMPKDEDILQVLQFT

ARHGEF12, Q9NZN5-2 = target: ARHGEF12, Q9NZN5-2
Sequence of ARHGEF12, Q9NZN5-2 (Q9NZN5 other isoform, or with tags, fused parts or gaps): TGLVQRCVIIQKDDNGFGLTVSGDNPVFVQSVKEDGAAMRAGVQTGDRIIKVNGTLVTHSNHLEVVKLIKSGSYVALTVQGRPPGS

CASK, O14936 = target: CASK, O14936
Sequence of CASK, O14936 (O14936 487-570): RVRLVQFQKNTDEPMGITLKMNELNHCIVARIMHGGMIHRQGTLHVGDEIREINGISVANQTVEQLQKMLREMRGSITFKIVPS

DLG1_1, Q12959 = target: DLG1_1, Q12959
DLG2_2, Q15700 = target: DLG2_2, Q15700
Sequence of DLG2_2, Q15700 (Q15700 189-283): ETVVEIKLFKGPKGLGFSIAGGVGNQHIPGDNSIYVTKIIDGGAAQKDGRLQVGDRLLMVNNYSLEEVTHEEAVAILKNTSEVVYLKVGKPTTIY

DLG4_1, P78352 = target: DLG4_1, P78352
Sequence of DLG4_1, P78352 (P78352 62-152): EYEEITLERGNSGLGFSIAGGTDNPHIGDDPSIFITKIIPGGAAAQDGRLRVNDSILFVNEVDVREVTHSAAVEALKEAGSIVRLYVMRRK

FRMPD2_1, Q68DX3 = target: FRMPD2_1, Q68DX3
Sequence of FRMPD2_1, Q68DX3 (Q68DX3 770-861): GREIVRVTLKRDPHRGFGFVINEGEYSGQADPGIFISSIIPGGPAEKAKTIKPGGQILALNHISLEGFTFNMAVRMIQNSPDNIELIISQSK

FRMPD4, Q14CM0 = target: FRMPD4, Q14CM0
Sequence of FRMPD4, Q14CM0 (Q14CM0 67-160): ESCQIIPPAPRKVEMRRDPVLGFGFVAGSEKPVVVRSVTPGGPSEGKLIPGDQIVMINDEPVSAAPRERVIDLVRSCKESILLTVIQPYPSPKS

GORASP2, Q9H8Y8 = target: GORASP2, Q9H8Y8
GRID2IP_1, A4D2P6 = target: GRID2IP_1, A4D2P6
Sequence of GRID2IP_1, A4D2P6 (A4D2P6 1-87): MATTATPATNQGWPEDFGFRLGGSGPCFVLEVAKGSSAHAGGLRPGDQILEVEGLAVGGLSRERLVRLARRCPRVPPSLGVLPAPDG

GRIP1_4, Q9Y3R0 = target: T4, GRIP1_4, Q9Y3R0
T4 sequence (Q9Y3R0 467-571, limits assumed, looked up): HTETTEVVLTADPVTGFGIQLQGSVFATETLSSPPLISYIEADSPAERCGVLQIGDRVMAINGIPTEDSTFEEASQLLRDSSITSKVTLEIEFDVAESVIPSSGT

GRIP2_3, Q9C0E4 = target: GRIP2_3, Q9C0E4
Sequence of GRIP2_3, Q9C0E4 (Q9C0E4 238-339): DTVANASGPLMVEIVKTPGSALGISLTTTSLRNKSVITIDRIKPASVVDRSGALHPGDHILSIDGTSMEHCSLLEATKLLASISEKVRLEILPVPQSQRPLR

IL16_4, Q14005 = target: IL16_4, Q14005
Sequence of IL16_4, Q14005 (Q14005 1229-1329): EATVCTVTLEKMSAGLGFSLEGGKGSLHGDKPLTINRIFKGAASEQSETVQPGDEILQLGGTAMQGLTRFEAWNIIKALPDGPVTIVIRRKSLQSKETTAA

Inadl_2, Q8NI35 = target: Inadl_2, Q8NI35
Sequence of Inadl_2, Q8NI35 (Q8NI35 238-335): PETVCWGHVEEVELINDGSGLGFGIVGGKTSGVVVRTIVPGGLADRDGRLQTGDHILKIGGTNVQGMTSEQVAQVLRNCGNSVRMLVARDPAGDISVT

LIMK2, P53671 = target: LIMK2, P53671
Sequence of LIMK2, P53671 (P53671 143-248): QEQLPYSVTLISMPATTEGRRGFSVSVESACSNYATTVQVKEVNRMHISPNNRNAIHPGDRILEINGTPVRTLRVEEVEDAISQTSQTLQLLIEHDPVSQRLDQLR

MAGI2_4, Q86UL8 = target: MAGI2_4, Q86UL8
Sequence of MAGI2_4, Q86UL8 (Q86UL8 772-865): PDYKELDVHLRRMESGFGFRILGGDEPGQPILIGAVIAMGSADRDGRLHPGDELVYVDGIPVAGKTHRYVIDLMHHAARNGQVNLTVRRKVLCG

MAGI2_6, Q86UL8 = target: MAGI2_6, Q86UL8
Sequence of MAGI2_6, Q86UL8 (Q86UL8 1141-1229): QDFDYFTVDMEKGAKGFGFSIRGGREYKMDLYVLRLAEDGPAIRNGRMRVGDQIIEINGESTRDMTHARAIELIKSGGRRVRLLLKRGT

MAGI3_2, Q5TCQ9 = target: MAGI3_2, Q5TCQ9
Sequence of MAGI3_2, Q5TCQ9 (Q5TCQ9 398-503): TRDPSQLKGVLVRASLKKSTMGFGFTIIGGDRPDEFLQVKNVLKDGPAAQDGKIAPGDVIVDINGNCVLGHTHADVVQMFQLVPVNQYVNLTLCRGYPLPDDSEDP

MPP2, Q14168 = target: T5, MPP2, Q14168
T5 sequence (Q14168 180-250, limits assumed, looked up): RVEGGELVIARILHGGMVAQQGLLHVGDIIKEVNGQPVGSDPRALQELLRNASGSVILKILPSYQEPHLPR

MPP6, Q9NZW5 = target: T6, MPP6, Q9NZW5
T6 sequence (Q9NZW5 125-219, limits assumed, looked up): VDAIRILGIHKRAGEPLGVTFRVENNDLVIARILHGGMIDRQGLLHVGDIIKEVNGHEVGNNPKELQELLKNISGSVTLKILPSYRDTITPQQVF

NHERF2_2, Q15599 = target: NHERF2_2, Q15599
Sequence of NHERF2_2, Q15599 (Q15599 142-238): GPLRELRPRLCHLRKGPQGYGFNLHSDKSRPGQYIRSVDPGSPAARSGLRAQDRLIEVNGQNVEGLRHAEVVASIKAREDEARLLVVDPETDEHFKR

NHERF3_3, Q5T2W1 = target: T7, NHERF3_3, Q5T2W1
T7 sequence (Q5T2W1 238-333, limits assumed, looked up): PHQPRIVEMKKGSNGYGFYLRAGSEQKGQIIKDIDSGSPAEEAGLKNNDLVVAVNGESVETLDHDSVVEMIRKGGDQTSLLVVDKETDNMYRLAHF

PCLO, Q9Y6V0 = target: T8, PCLO, Q9Y6V0
T8 sequence (Q9Y6V0 4491-4600, limits assumed, looked up): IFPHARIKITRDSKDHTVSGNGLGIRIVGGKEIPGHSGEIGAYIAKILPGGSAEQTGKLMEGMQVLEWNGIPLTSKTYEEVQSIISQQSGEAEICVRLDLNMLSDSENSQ

PDLIM1, O00151 = target: PDLIM1, O00151
Sequence of PDLIM1, O00151 (O00151 1-87): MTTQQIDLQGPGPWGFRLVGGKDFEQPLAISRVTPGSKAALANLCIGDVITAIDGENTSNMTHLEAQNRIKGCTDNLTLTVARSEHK

SNTA1, Q13424 = target: T9, SNTA1, Q13424
T9 sequence (Q13424 82-180, limits assumed, looked up): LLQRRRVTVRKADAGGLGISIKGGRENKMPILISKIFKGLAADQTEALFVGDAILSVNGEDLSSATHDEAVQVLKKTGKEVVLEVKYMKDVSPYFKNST

TJP2_1, Q9UDY2 = target: TJP2_1, Q9UDY2
Sequence of TJP2_1, Q9UDY2 (Q9UDY2 24-128): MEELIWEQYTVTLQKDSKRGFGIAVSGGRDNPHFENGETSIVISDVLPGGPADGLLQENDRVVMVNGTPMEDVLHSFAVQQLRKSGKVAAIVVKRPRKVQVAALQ

Binder: PEEGKKQSQC [GAGE12J, A6NER3]
pKd (APBA1_2, Q02410): below the threshold | pKd (APBA2_2, Q99767): below the threshold | pKd (ARHGAP21, Q5T5U3): below the threshold | pKd (ARHGEF12, Q9NZN5-2): 3.84 | pKd (CASK, O14936): below the threshold | pKd (DLG1_1, Q12959): below the threshold | pKd (DLG2_2, Q15700): below the threshold | pKd (DLG4_1, P78352): below the threshold | pKd (FRMPD2_1, Q68DX3): below the threshold | pKd (FRMPD4, Q14CM0): 3.48 | pKd (GORASP2, Q9H8Y8): below the threshold | pKd (GRID2IP_1, A4D2P6): below the threshold | pKd (GRIP1_4, Q9Y3R0): below the threshold | pKd (GRIP2_3, Q9C0E4): below the threshold | pKd (IL16_4, Q14005): 3.69 | pKd (Inadl_2, Q8NI35): below the threshold | pKd (LIMK2, P53671): below the threshold | pKd (MAGI2_4, Q86UL8): below the threshold | pKd (MAGI2_6, Q86UL8): below the threshold | pKd (MAGI3_2, Q5TCQ9): below the threshold | pKd (MPP2, Q14168): below the threshold | pKd (MPP6, Q9NZW5): below the threshold | pKd (NHERF2_2, Q15599): 3.48 | pKd (NHERF3_3, Q5T2W1): below the threshold | pKd (PCLO, Q9Y6V0): below the threshold | pKd (PDLIM1, O00151): below the threshold | pKd (SNTA1, Q13424): below the threshold | pKd (TJP2_1, Q9UDY2): below the threshold

Binder: SSGSTSSSRI [ADGRG1, Q9Y653]
pKd (APBA1_2, Q02410): below the threshold | pKd (APBA2_2, Q99767): below the threshold | pKd (ARHGAP21, Q5T5U3): below the threshold | pKd (ARHGEF12, Q9NZN5-2): 4.04 | pKd (CASK, O14936): below the threshold | pKd (DLG1_1, Q12959): below the threshold | pKd (DLG2_2, Q15700): 3.49 | pKd (DLG4_1, P78352): below the threshold | pKd (FRMPD2_1, Q68DX3): below the threshold | pKd (FRMPD4, Q14CM0): below the threshold | pKd (GORASP2, Q9H8Y8): 3.57 | pKd (GRID2IP_1, A4D2P6): below the threshold | pKd (GRIP1_4, Q9Y3R0): below the threshold | pKd (GRIP2_3, Q9C0E4): below the threshold | pKd (IL16_4, Q14005): 3.63 | pKd (Inadl_2, Q8NI35): below the threshold | pKd (LIMK2, P53671): below the threshold | pKd (MAGI2_4, Q86UL8): 3.77 | pKd (MAGI2_6, Q86UL8): below the threshold | pKd (MAGI3_2, Q5TCQ9): 3.63 | pKd (MPP2, Q14168): below the threshold | pKd (MPP6, Q9NZW5): below the threshold | pKd (NHERF2_2, Q15599): 3.71 | pKd (NHERF3_3, Q5T2W1): below the threshold | pKd (PCLO, Q9Y6V0): below the threshold | pKd (PDLIM1, O00151): below the threshold | pKd (SNTA1, Q13424): below the threshold | pKd (TJP2_1, Q9UDY2): below the threshold

Other lines, results leading:

pKd (APBA1_2, Q02410): below the threshold | pKd (APBA2_2, Q99767): below the threshold | pKd (ARHGAP21, Q5T5U3): 4.02 | pKd (ARHGEF12, Q9NZN5-2): 4.36 | pKd (CASK, O14936): below the threshold | pKd (DLG1_1, Q12959): below the threshold | pKd (DLG2_2, Q15700): below the threshold | pKd (DLG4_1, P78352): 3.52 | pKd (FRMPD2_1, Q68DX3): below the threshold | pKd (FRMPD4, Q14CM0): 4.84 | pKd (GORASP2, Q9H8Y8): below the threshold | pKd (GRID2IP_1, A4D2P6): below the threshold | pKd (GRIP1_4, Q9Y3R0): below the threshold | pKd (GRIP2_3, Q9C0E4): below the threshold | pKd (IL16_4, Q14005): below the threshold | pKd (Inadl_2, Q8NI35): below the threshold | pKd (LIMK2, P53671): below the threshold | pKd (MAGI2_4, Q86UL8): below the threshold | pKd (MAGI2_6, Q86UL8): 3.51 | pKd (MAGI3_2, Q5TCQ9): below the threshold | pKd (MPP2, Q14168): below the threshold | pKd (MPP6, Q9NZW5): 3.74 | pKd (NHERF2_2, Q15599): 4.83 | pKd (NHERF3_3, Q5T2W1): below the threshold | pKd (PCLO, Q9Y6V0): below the threshold | pKd (PDLIM1, O00151): below the threshold | pKd (SNTA1, Q13424): 4.04 | pKd (TJP2_1, Q9UDY2): below the threshold
Binder: NPETRDETQL [KCNT1, Q5JUK3]

pKd (APBA1_2, Q02410): 3.8 | pKd (APBA2_2, Q99767): below the threshold | pKd (ARHGAP21, Q5T5U3): 4.09 | pKd (ARHGEF12, Q9NZN5-2): 3.71 | pKd (CASK, O14936): below the threshold | pKd (DLG1_1, Q12959): 3.74 | pKd (DLG2_2, Q15700): 3.85 | pKd (DLG4_1, P78352): 3.99 | pKd (FRMPD2_1, Q68DX3): below the threshold | pKd (FRMPD4, Q14CM0): below the threshold | pKd (GORASP2, Q9H8Y8): below the threshold | pKd (GRID2IP_1, A4D2P6): below the threshold | pKd (GRIP1_4, Q9Y3R0): below the threshold | pKd (GRIP2_3, Q9C0E4): below the threshold | pKd (IL16_4, Q14005): below the threshold | pKd (Inadl_2, Q8NI35): below the threshold | pKd (LIMK2, P53671): below the threshold | pKd (MAGI2_4, Q86UL8): below the threshold | pKd (MAGI2_6, Q86UL8): 4.27 | pKd (MAGI3_2, Q5TCQ9): 3.77 | pKd (MPP2, Q14168): below the threshold | pKd (MPP6, Q9NZW5): below the threshold | pKd (NHERF2_2, Q15599): 3.88 | pKd (NHERF3_3, Q5T2W1): below the threshold | pKd (PCLO, Q9Y6V0): below the threshold | pKd (PDLIM1, O00151): 3.54 | pKd (SNTA1, Q13424): 4.25 | pKd (TJP2_1, Q9UDY2): below the threshold
Binder: PDSNPEESSV [SEMA4C, Q9C0C4]
